1 substance from publication PMC7851051 can be followed below.

Read-outs that look alike come from different tables or passages of the source.

The target of test [1] is LLO118_(high) single-chain TCR (scTCR), displayed on yeast (mouse). As to the kind of experiment: flow cytometry on cells; tetramer titration on yeast-displayed scTCR: 1x10^6 induced cells, 0.152 nM to 12.16 nM tetramer, 1.5 h, room temperature; MFI normalised; KD = 50% maximum binding concentration, one site-specific fit; multivalent avidity; percent of cells bound (Figure 2B). Background: Flow cytometry measures light scatter and fluorescence of single cells or particles in a stream.

The target of test [2] is LLO56int single-chain TCR (scTCR), displayed on yeast (mouse). The description is as above.
Test [3] deals with LLO118_(high) single-chain TCR (scTCR), displayed on yeast (mouse). As to the kind of experiment: flow cytometry on cells; scTCR displayed on yeast stained with LLO_(190-201)/I-A^b tetramer; histograms (Figure 1C).
The target of test [4] is LLO56int single-chain TCR (scTCR), displayed on yeast (mouse). The description is as above.
Test [5] addresses LLO118int single-chain TCR (scTCR), displayed on yeast (mouse). The test can be described thus: flow cytometry on cells.
Test [6] concerns the target LLO56low single-chain TCR (scTCR), displayed on yeast (mouse). The test can be described thus: flow cytometry on cells.
Test [7] addresses LLO118low single-chain TCR (scTCR), displayed on yeast (mouse). The test can be described thus: flow cytometry on cells.
The target of test [8] is LLO118int single-chain TCR (scTCR), displayed on yeast (mouse). The test can be described thus: flow cytometry on cells. This is another data set of the same source.
Test [9] concerns the target LLO118_(high) single-chain TCR (scTCR), displayed on yeast (mouse). As to the kind of experiment: flow cytometry on cells; tetramer decay on yeast-displayed scTCR: 6.5 µg/ml tetramer, 1.5 h, room temperature, washed, then anti-mouse MHC class II (M5/114.15.2) added and tetramer followed for 2-60 min; first round (Figure 2C); multivalent half-life.
The target in test [10] is LLO56int single-chain TCR (scTCR), displayed on yeast (mouse). The test is described as above.
Test [11] has the same target. As to the kind of experiment: flow cytometry on cells; tetramer decay on yeast-displayed scTCR as above, second round with lower levels of MHC inhibiting-antibody (Figure 2D); multivalent half-life.

With “LLO_(190-201)/I-A^b tetramer (peptide-MHC)”, the values for the Kd in [1], in test [2] and in [8] were 7.33 nM, 39.2 nM and 44.8 nM, respectively. Also, the percent of cells bound by tetramer in test [1] was found to be 43.3%; in test [2], 12.6%. For the same substance, the log better tetramer binding than LLO118int in [3] is 1 log. Moreover, the log better tetramer binding than LLO118low in [3] was determined as 2.5 log. This substance also gave a log better tetramer binding than LLO56low in test [4] of 1.5 log. Also, the other in test [5] amounted to 6.7 min; in test [6], 0.75%; in test [7], 1.1%; in test [8], 24.5%. Further, the t1/2 in [9] came out at 165 m; in [10], 1 m; in test [11], 3.5 min.
